# T1: recombinant Factor VIII (CSL627, rVIII-SingleChain) (Homo sapiens (Human), UniProt P00451 20-2351)
# T1 construct: also called FVIII
# T1 sequence: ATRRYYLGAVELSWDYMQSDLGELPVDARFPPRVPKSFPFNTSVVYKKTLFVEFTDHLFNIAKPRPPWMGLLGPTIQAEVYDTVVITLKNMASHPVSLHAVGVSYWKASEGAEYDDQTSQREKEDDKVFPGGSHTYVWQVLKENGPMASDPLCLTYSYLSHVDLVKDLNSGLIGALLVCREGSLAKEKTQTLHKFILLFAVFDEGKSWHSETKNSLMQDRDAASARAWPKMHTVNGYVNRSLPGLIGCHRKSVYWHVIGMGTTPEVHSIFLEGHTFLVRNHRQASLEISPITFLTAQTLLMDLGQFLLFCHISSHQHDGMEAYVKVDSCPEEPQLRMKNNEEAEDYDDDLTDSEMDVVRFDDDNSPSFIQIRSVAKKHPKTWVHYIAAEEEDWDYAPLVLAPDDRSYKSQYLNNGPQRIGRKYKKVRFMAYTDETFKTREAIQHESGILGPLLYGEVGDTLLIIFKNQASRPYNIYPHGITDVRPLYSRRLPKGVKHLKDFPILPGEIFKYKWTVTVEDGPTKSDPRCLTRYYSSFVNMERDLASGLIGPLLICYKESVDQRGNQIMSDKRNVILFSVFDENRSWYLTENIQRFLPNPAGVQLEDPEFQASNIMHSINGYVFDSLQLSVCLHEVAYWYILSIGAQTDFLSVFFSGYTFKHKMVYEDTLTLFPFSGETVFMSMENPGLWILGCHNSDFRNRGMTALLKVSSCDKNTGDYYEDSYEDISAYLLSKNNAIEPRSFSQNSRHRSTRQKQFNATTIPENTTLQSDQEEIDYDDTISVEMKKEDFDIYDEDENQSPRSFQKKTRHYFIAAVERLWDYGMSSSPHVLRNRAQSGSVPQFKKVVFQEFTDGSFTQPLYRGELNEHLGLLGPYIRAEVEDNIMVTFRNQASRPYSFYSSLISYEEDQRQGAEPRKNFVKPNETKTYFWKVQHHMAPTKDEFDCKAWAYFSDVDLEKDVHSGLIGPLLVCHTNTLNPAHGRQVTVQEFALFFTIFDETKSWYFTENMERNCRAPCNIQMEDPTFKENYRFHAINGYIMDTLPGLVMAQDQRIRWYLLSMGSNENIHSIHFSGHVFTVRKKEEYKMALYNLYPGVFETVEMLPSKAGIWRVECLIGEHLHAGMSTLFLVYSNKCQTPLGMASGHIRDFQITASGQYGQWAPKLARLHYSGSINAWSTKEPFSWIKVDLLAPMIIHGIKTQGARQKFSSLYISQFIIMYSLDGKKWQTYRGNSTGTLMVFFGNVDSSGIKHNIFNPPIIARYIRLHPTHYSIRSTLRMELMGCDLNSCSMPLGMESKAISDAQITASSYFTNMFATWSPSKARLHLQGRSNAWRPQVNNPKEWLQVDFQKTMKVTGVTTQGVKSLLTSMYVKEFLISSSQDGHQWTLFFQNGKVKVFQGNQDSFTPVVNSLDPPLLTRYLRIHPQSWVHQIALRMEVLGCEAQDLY
# Target: T1, recombinant Factor VIII (CSL627, …)
# Experiment: SPR, anti-His capture, FVIII injected, 37 C
# Protocol: Binding kinetics were investigated by surface plasmon resonance using a Biacore 4000 biosensor at 37° C. Each mutant was captured from cell culture medium to a density of 40-150 RU on a CM-5 sensor chip pre-immobilised with anti-His antibody (14,000 RU). In an initial screening study, FVIII was injected over the captured mutants for 5 minutes at 1 nM and dissociation monitored for 5 minutes.
# All sensorgrams were double referenced by subtraction of signals from a reference spot (containing only immobilised anti His antibody) and from a blank injection. Binding kinetics were determined by fitting the double referenced sensorgrams to a 1:1 kinetic model.
Kd,koff,kon,Binder
0.0287 nM,0.00331 s⁻¹,1.15e+08 M⁻¹ s⁻¹,Hu-vWF[764-1270]-8His S764P-L765T-S766I (other) PTICRPPMVKLVCPADNLRAEGLECTKTCQNYDLECMSMGCVSGCLCPPGMVRHENRCVALERCPCFHQGKEYAPGETVKIGCNTCVCRDRKWNCTDHVCDATCSTIGMAHYLTFDGLKYLFPGECQYVLVQDYCGSNPGTFRILVGNKGCSHPSVKCKKRVTILVEGGEIELFDGEVNVKRPMKDETHFEVVESGRYIILLLGKALSVVWDRHLSISVVLKQTYQEKVCGLCGNFDGIQNNDLTSSNLQVEEDPVDFGNSWKVSSQCADTRKVPLDSSPATCHNNIMKQTMVDSSCRILTSDVFQDCNKLVDPEPYLDVCIYDTCSCESIGDCACFCDTIAAYAHVCAQHGKVVTWRTATLCPQSCEERNLRENGYECEWRYNSCAPACQVTCQHPEPLACPVQCVEGCHAHCPPGKILDELLQTCVDPEDCPVCEVAGRRFASGKKVTLNPSDPEHCQICHCDVVNLTCEACQEPGGLVVPPTDAPVSPTTLYVEDISEPPLHDFHHHHHHHH
0.228 nM,0.000744 s⁻¹,3.26e+06 M⁻¹ s⁻¹,Hu-vWF[764-1270]-8His S766W-L809F (other) SLWCRPPMVKLVCPADNLRAEGLECTKTCQNYDLECMSMGCVSGCFCPPGMVRHENRCVALERCPCFHQGKEYAPGETVKIGCNTCVCRDRKWNCTDHVCDATCSTIGMAHYLTFDGLKYLFPGECQYVLVQDYCGSNPGTFRILVGNKGCSHPSVKCKKRVTILVEGGEIELFDGEVNVKRPMKDETHFEVVESGRYIILLLGKALSVVWDRHLSISVVLKQTYQEKVCGLCGNFDGIQNNDLTSSNLQVEEDPVDFGNSWKVSSQCADTRKVPLDSSPATCHNNIMKQTMVDSSCRILTSDVFQDCNKLVDPEPYLDVCIYDTCSCESIGDCACFCDTIAAYAHVCAQHGKVVTWRTATLCPQSCEERNLRENGYECEWRYNSCAPACQVTCQHPEPLACPVQCVEGCHAHCPPGKILDELLQTCVDPEDCPVCEVAGRRFASGKKVTLNPSDPEHCQICHCDVVNLTCEACQEPGGLVVPPTDAPVSPTTLYVEDISEPPLHDFHHHHHHHH
0.132 nM,0.000146 s⁻¹,1.11e+06 M⁻¹ s⁻¹,Hu-vWF[764-1270]-8His S764P-L765W-S766I (other) PWICRPPMVKLVCPADNLRAEGLECTKTCQNYDLECMSMGCVSGCLCPPGMVRHENRCVALERCPCFHQGKEYAPGETVKIGCNTCVCRDRKWNCTDHVCDATCSTIGMAHYLTFDGLKYLFPGECQYVLVQDYCGSNPGTFRILVGNKGCSHPSVKCKKRVTILVEGGEIELFDGEVNVKRPMKDETHFEVVESGRYIILLLGKALSVVWDRHLSISVVLKQTYQEKVCGLCGNFDGIQNNDLTSSNLQVEEDPVDFGNSWKVSSQCADTRKVPLDSSPATCHNNIMKQTMVDSSCRILTSDVFQDCNKLVDPEPYLDVCIYDTCSCESIGDCACFCDTIAAYAHVCAQHGKVVTWRTATLCPQSCEERNLRENGYECEWRYNSCAPACQVTCQHPEPLACPVQCVEGCHAHCPPGKILDELLQTCVDPEDCPVCEVAGRRFASGKKVTLNPSDPEHCQICHCDVVNLTCEACQEPGGLVVPPTDAPVSPTTLYVEDISEPPLHDFHHHHHHHH
0.00207 nM,0.000116 s⁻¹,5.62e+07 M⁻¹ s⁻¹,Hu-vWF[764-1270]-8His S764P-L765V-S766I (other) PVICRPPMVKLVCPADNLRAEGLECTKTCQNYDLECMSMGCVSGCLCPPGMVRHENRCVALERCPCFHQGKEYAPGETVKIGCNTCVCRDRKWNCTDHVCDATCSTIGMAHYLTFDGLKYLFPGECQYVLVQDYCGSNPGTFRILVGNKGCSHPSVKCKKRVTILVEGGEIELFDGEVNVKRPMKDETHFEVVESGRYIILLLGKALSVVWDRHLSISVVLKQTYQEKVCGLCGNFDGIQNNDLTSSNLQVEEDPVDFGNSWKVSSQCADTRKVPLDSSPATCHNNIMKQTMVDSSCRILTSDVFQDCNKLVDPEPYLDVCIYDTCSCESIGDCACFCDTIAAYAHVCAQHGKVVTWRTATLCPQSCEERNLRENGYECEWRYNSCAPACQVTCQHPEPLACPVQCVEGCHAHCPPGKILDELLQTCVDPEDCPVCEVAGRRFASGKKVTLNPSDPEHCQICHCDVVNLTCEACQEPGGLVVPPTDAPVSPTTLYVEDISEPPLHDFHHHHHHHH
0.265 nM,0.00155 s⁻¹,5.84e+06 M⁻¹ s⁻¹,Hu-vWF[764-1270]-8His S766W-L809E (other) SLWCRPPMVKLVCPADNLRAEGLECTKTCQNYDLECMSMGCVSGCECPPGMVRHENRCVALERCPCFHQGKEYAPGETVKIGCNTCVCRDRKWNCTDHVCDATCSTIGMAHYLTFDGLKYLFPGECQYVLVQDYCGSNPGTFRILVGNKGCSHPSVKCKKRVTILVEGGEIELFDGEVNVKRPMKDETHFEVVESGRYIILLLGKALSVVWDRHLSISVVLKQTYQEKVCGLCGNFDGIQNNDLTSSNLQVEEDPVDFGNSWKVSSQCADTRKVPLDSSPATCHNNIMKQTMVDSSCRILTSDVFQDCNKLVDPEPYLDVCIYDTCSCESIGDCACFCDTIAAYAHVCAQHGKVVTWRTATLCPQSCEERNLRENGYECEWRYNSCAPACQVTCQHPEPLACPVQCVEGCHAHCPPGKILDELLQTCVDPEDCPVCEVAGRRFASGKKVTLNPSDPEHCQICHCDVVNLTCEACQEPGGLVVPPTDAPVSPTTLYVEDISEPPLHDFHHHHHHHH
0.425 nM,0.0019 s⁻¹,4.46e+06 M⁻¹ s⁻¹,Hu-vWF[764-1270]-8His S766W-L809D (other) SLWCRPPMVKLVCPADNLRAEGLECTKTCQNYDLECMSMGCVSGCDCPPGMVRHENRCVALERCPCFHQGKEYAPGETVKIGCNTCVCRDRKWNCTDHVCDATCSTIGMAHYLTFDGLKYLFPGECQYVLVQDYCGSNPGTFRILVGNKGCSHPSVKCKKRVTILVEGGEIELFDGEVNVKRPMKDETHFEVVESGRYIILLLGKALSVVWDRHLSISVVLKQTYQEKVCGLCGNFDGIQNNDLTSSNLQVEEDPVDFGNSWKVSSQCADTRKVPLDSSPATCHNNIMKQTMVDSSCRILTSDVFQDCNKLVDPEPYLDVCIYDTCSCESIGDCACFCDTIAAYAHVCAQHGKVVTWRTATLCPQSCEERNLRENGYECEWRYNSCAPACQVTCQHPEPLACPVQCVEGCHAHCPPGKILDELLQTCVDPEDCPVCEVAGRRFASGKKVTLNPSDPEHCQICHCDVVNLTCEACQEPGGLVVPPTDAPVSPTTLYVEDISEPPLHDFHHHHHHHH
0.0367 nM,0.0019 s⁻¹,5.17e+07 M⁻¹ s⁻¹,Hu-vWF[764-1270]-8His S764P-L765Y-S766I (other) PYICRPPMVKLVCPADNLRAEGLECTKTCQNYDLECMSMGCVSGCLCPPGMVRHENRCVALERCPCFHQGKEYAPGETVKIGCNTCVCRDRKWNCTDHVCDATCSTIGMAHYLTFDGLKYLFPGECQYVLVQDYCGSNPGTFRILVGNKGCSHPSVKCKKRVTILVEGGEIELFDGEVNVKRPMKDETHFEVVESGRYIILLLGKALSVVWDRHLSISVVLKQTYQEKVCGLCGNFDGIQNNDLTSSNLQVEEDPVDFGNSWKVSSQCADTRKVPLDSSPATCHNNIMKQTMVDSSCRILTSDVFQDCNKLVDPEPYLDVCIYDTCSCESIGDCACFCDTIAAYAHVCAQHGKVVTWRTATLCPQSCEERNLRENGYECEWRYNSCAPACQVTCQHPEPLACPVQCVEGCHAHCPPGKILDELLQTCVDPEDCPVCEVAGRRFASGKKVTLNPSDPEHCQICHCDVVNLTCEACQEPGGLVVPPTDAPVSPTTLYVEDISEPPLHDFHHHHHHHH
0.258 nM,0.00115 s⁻¹,4.45e+06 M⁻¹ s⁻¹,Hu-vWF[764-1270]-8His S766W-L809A (other) SLWCRPPMVKLVCPADNLRAEGLECTKTCQNYDLECMSMGCVSGCACPPGMVRHENRCVALERCPCFHQGKEYAPGETVKIGCNTCVCRDRKWNCTDHVCDATCSTIGMAHYLTFDGLKYLFPGECQYVLVQDYCGSNPGTFRILVGNKGCSHPSVKCKKRVTILVEGGEIELFDGEVNVKRPMKDETHFEVVESGRYIILLLGKALSVVWDRHLSISVVLKQTYQEKVCGLCGNFDGIQNNDLTSSNLQVEEDPVDFGNSWKVSSQCADTRKVPLDSSPATCHNNIMKQTMVDSSCRILTSDVFQDCNKLVDPEPYLDVCIYDTCSCESIGDCACFCDTIAAYAHVCAQHGKVVTWRTATLCPQSCEERNLRENGYECEWRYNSCAPACQVTCQHPEPLACPVQCVEGCHAHCPPGKILDELLQTCVDPEDCPVCEVAGRRFASGKKVTLNPSDPEHCQICHCDVVNLTCEACQEPGGLVVPPTDAPVSPTTLYVEDISEPPLHDFHHHHHHHH

# Reference: US20190015483A1 (CSL BEHRING RECOMBINANT FACILITY, published 2019)
